The values that follow come from the supplement of paper PMC10567573.

To fix the notation:
B1: FBXO39 (parent)
chain: PSRVHASEVESAVWYVKKFGRYLE
B2: MATN2 (parent)
chain: TDDSYSCHCLKGFTLNPDKKTCRR
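Also: lentivirally expressed fusions sorted by FACS into six bins by GFP to DsRed ratio, PSI derived from sequencing read proportions per bin multiplied by bin number.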

Variants of B1 are the subject of the first series. Description: protein stability index of a GFP-peptide fusion (GPS, HEK-293T) (PSI 1-6); higher = more stable. As to conditions: c terminus: a fixed tail appended.
With PSRVHASEVESAVWYVKKRGRYLE [F19R], the protein stability index amounted to 2.88.

As to PSRVHASEVESAVWYVKKGGRYLE [F19G], the protein stability index was 3.17.

In the case of PSRVHASEVESAVWYVKKVGRYLE [F19V], the protein stability index was found to be 1.98.

Take PSRVHASEVESAVWYVKKEGRYLE [F19E]: the protein stability index is 3.76.

As for PSRVHASEVESAVWYVKKYGRYLE [F19Y], the protein stability index stood at 2.5.

For PSRVHASEVESAVWYVKKAGRYLE [F19A], the protein stability index is 2.77.

Consider PSRVHASEVESAVWYVKKCGRYLE [F19C], for which the protein stability index was 2.04.

For PSRVHASEVESAVWYVKKMGRYLE [F19M], the protein stability index came out at 2.14.

As for PSRVHASEVESAVWYVKKSGRYLE [F19S], the protein stability index was 2.42.

In the case of PSRVHASEVESAVWYVKKNGRYLE [F19N], the protein stability index was found to be 3.43.

As to PSRVHASEVESAVWYVKKWGRYLE [F19W], the protein stability index is 2.12.

On to PSRVHASEVESAVWYVKKLGRYLE [F19L], for which the protein stability index amounted to 2.22.

In the case of PSRVHASEVESAVWYVKKIGRYLE [F19I], the protein stability index is 1.88.

In the case of PSRVHASEVESAVWYVKKQGRYLE [F19Q], the protein stability index turned out to be 2.79.

Regarding PSRVHASEVESAVWYVKKKGRYLE [F19K], the protein stability index is 3.32.

Take PSRVHASEVESAVWYVKKDGRYLE [F19D]: the protein stability index came to 3.27.

With PSRVHASEVESAVWYVKKPGRYLE [F19P], the protein stability index was 2.72.

As to PSRVHASEVESAVWYVKKTGRYLE [F19T], the protein stability index is 2.55.

Regarding PSRVHASEVESAVWYVKKHGRYLE [F19H], the protein stability index is 3.06.

Regarding PSRVHASEVESAVWYVKVFGRYLE [K18V], the protein stability index was 1.75.

PSRVHASEVESAVWYVKQFGRYLE [K18Q]: the protein stability index is 1.75.

PSRVHASEVESAVWYVKHFGRYLE [K18H]: the protein stability index was found to be 1.89.

Regarding PSRVHASEVESAVWYVKLFGRYLE [K18L], the protein stability index stood at 1.79.

As for PSRVHASEVESAVWYVKGFGRYLE [K18G], the protein stability index was 2.02.

Consider PSRVHASEVESAVWYVKMFGRYLE [K18M], for which the protein stability index stood at 1.82.

In the case of PSRVHASEVESAVWYVKNFGRYLE [K18N], the protein stability index was 1.88.

For PSRVHASEVESAVWYVKFFGRYLE [K18F], the protein stability index was found to be 1.95.

PSRVHASEVESAVWYVKTFGRYLE [K18T]: the protein stability index worked out at 1.73.

Turning to PSRVHASEVESAVWYVKSFGRYLE [K18S], the protein stability index was found to be 1.81.

For PSRVHASEVESAVWYVKRFGRYLE [K18R], the protein stability index stood at 1.5.

Consider PSRVHASEVESAVWYVKWFGRYLE [K18W], for which the protein stability index was 2.4.

On to PSRVHASEVESAVWYVKPFGRYLE [K18P], for which the protein stability index is 2.07.

For PSRVHASEVESAVWYVKYFGRYLE [K18Y], the protein stability index is 1.47.

For PSRVHASEVESAVWYVKIFGRYLE [K18I], the protein stability index worked out at 2.93.

Variants of B2 are the subject of a further series. Described as above. The following applies: c terminus: a fixed tail appended.
On to TSDSYSCHCLKGFTLNPDKKTCRR [D2S], for which the protein stability index was found to be 2.11.

TPDSYSCHCLKGFTLNPDKKTCRR [D2P]: the protein stability index was 1.66.

TYDSYSCHCLKGFTLNPDKKTCRR [D2Y]: the protein stability index turned out to be 1.26.

With TCDSYSCHCLKGFTLNPDKKTCRR [D2C], the protein stability index worked out at 1.88.

In the case of TFDSYSCHCLKGFTLNPDKKTCRR [D2F], the protein stability index is 1.41.

On to TADSYSCHCLKGFTLNPDKKTCRR [D2A], for which the protein stability index was determined as 1.88.

With TEDSYSCHCLKGFTLNPDKKTCRR [D2E], the protein stability index was 1.98.

Regarding TRDSYSCHCLKGFTLNPDKKTCRR [D2R], the protein stability index worked out at 2.29.

Consider TGDSYSCHCLKGFTLNPDKKTCRR [D2G], for which the protein stability index is 2.98.

In the case of TMDSYSCHCLKGFTLNPDKKTCRR [D2M], the protein stability index is 2.09.

On to TLDSYSCHCLKGFTLNPDKKTCRR [D2L], for which the protein stability index came to 2.81.

Consider TIDSYSCHCLKGFTLNPDKKTCRR [D2I], for which the protein stability index turned out to be 2.02.

On to THDSYSCHCLKGFTLNPDKKTCRR [D2H], for which the protein stability index is 2.15.

Consider TWDSYSCHCLKGFTLNPDKKTCRR [D2W], for which the protein stability index worked out at 2.24.

On to TNDSYSCHCLKGFTLNPDKKTCRR [D2N], for which the protein stability index was 2.32.

Regarding TQDSYSCHCLKGFTLNPDKKTCRR [D2Q], the protein stability index was 1.82.

Turning to TKDSYSCHCLKGFTLNPDKKTCRR [D2K], the protein stability index stood at 2.85.

For the variant TTDSYSCHCLKGFTLNPDKKTCRR [D2T], the protein stability index stood at 2.08.

For TDTSYSCHCLKGFTLNPDKKTCRR [D3T], the protein stability index was 2.01.

Turning to TDYSYSCHCLKGFTLNPDKKTCRR [D3Y], the protein stability index was determined as 1.76.

As for TDASYSCHCLKGFTLNPDKKTCRR [D3A], the protein stability index was 2.24.

For TDISYSCHCLKGFTLNPDKKTCRR [D3I], the protein stability index turned out to be 1.91.

With TDFSYSCHCLKGFTLNPDKKTCRR [D3F], the protein stability index was 1.67.

With TDESYSCHCLKGFTLNPDKKTCRR [D3E], the protein stability index came out at 1.73.

As to TDSSYSCHCLKGFTLNPDKKTCRR [D3S], the protein stability index stood at 2.24.

Regarding TDMSYSCHCLKGFTLNPDKKTCRR [D3M], the protein stability index worked out at 2.31.

As to TDLSYSCHCLKGFTLNPDKKTCRR [D3L], the protein stability index came to 2.36.

In the case of TDQSYSCHCLKGFTLNPDKKTCRR [D3Q], the protein stability index came to 2.13.

For the variant TDNSYSCHCLKGFTLNPDKKTCRR [D3N], the protein stability index was 2.1.

As to TDRSYSCHCLKGFTLNPDKKTCRR [D3R], the protein stability index was 2.2.

In the case of TDHSYSCHCLKGFTLNPDKKTCRR [D3H], the protein stability index came to 2.15.

Turning to TDVSYSCHCLKGFTLNPDKKTCRR [D3V], the protein stability index is 2.41.

Regarding TDKSYSCHCLKGFTLNPDKKTCRR [D3K], the protein stability index is 1.93.

With TDGSYSCHCLKGFTLNPDKKTCRR [D3G], the protein stability index was found to be 2.36.

For TDWSYSCHCLKGFTLNPDKKTCRR [D3W], the protein stability index is 1.41.

In the case of TDPSYSCHCLKGFTLNPDKKTCRR [D3P], the protein stability index worked out at 2.93.

For the variant TDCSYSCHCLKGFTLNPDKKTCRR [D3C], the protein stability index was determined as 2.17.

In the case of MDDSYSCHCLKGFTLNPDKKTCRR [T1M], the protein stability index turned out to be 2.47.

Regarding IDDSYSCHCLKGFTLNPDKKTCRR [T1I], the protein stability index turned out to be 2.1.

In the case of GDDSYSCHCLKGFTLNPDKKTCRR [T1G], the protein stability index came out at 2.71.

As for NDDSYSCHCLKGFTLNPDKKTCRR [T1N], the protein stability index was 1.86.

For WDDSYSCHCLKGFTLNPDKKTCRR [T1W], the protein stability index came out at 2.35.

In the case of VDDSYSCHCLKGFTLNPDKKTCRR [T1V], the protein stability index was determined as 3.42.

With FDDSYSCHCLKGFTLNPDKKTCRR [T1F], the protein stability index was determined as 2.21.

For the variant DDDSYSCHCLKGFTLNPDKKTCRR [T1D], the protein stability index worked out at 2.55.

Consider KDDSYSCHCLKGFTLNPDKKTCRR [T1K], for which the protein stability index is 1.75.

Consider HDDSYSCHCLKGFTLNPDKKTCRR [T1H], for which the protein stability index came out at 2.7.

As for CDDSYSCHCLKGFTLNPDKKTCRR [T1C], the protein stability index was 2.

Take LDDSYSCHCLKGFTLNPDKKTCRR [T1L]: the protein stability index came out at 2.36.

For the variant SDDSYSCHCLKGFTLNPDKKTCRR [T1S], the protein stability index was found to be 2.63.

Turning to PDDSYSCHCLKGFTLNPDKKTCRR [T1P], the protein stability index was found to be 2.81.

RDDSYSCHCLKGFTLNPDKKTCRR [T1R]: the protein stability index is 2.95.

As to EDDSYSCHCLKGFTLNPDKKTCRR [T1E], the protein stability index stood at 2.09.

Consider QDDSYSCHCLKGFTLNPDKKTCRR [T1Q], for which the protein stability index came out at 1.75.

Turning to ADDSYSCHCLKGFTLNPDKKTCRR [T1A], the protein stability index was found to be 2.47.

For TDDFYSCHCLKGFTLNPDKKTCRR [S4F], the protein stability index came to 1.83.

Regarding TDDDYSCHCLKGFTLNPDKKTCRR [S4D], the protein stability index is 2.

In the case of TDDAYSCHCLKGFTLNPDKKTCRR [S4A], the protein stability index was 1.34.

For the variant TDDCYSCHCLKGFTLNPDKKTCRR [S4C], the protein stability index was determined as 1.8.

As to TDDEYSCHCLKGFTLNPDKKTCRR [S4E], the protein stability index came to 2.79.
